Assay results published in FireProtDB (doi:10.1021/bi00150a030).

Settings: Rattus norvegicus, pH 7, Fluorescence, Sodium-Potassium phosphate 0.1 M; for denaturant m value / denaturant midpoint (higher = more stable) / unfolding free energy: 15 °C, GdnHCl; for Tm / change of melting temperature, mutant - wild type (higher = more stable): Thermal

Chain of Cytochrome c, somatic P31A|Y68F, P62898 P31A Y68F (P62898 whole entry P31A/Y68F): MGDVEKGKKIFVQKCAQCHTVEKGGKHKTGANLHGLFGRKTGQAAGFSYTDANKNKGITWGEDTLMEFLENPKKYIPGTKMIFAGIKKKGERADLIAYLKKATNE
Chain of Cytochrome c, somatic wild type, P62898 (P62898 whole entry): as the sequence (P62898 whole entry P31A/Y68F) above, with A31P, F68Y counted along it
Chain of Cytochrome c, somatic Y68F, P62898 (P62898 whole entry Y68F): as the sequence (P62898 whole entry P31A/Y68F) above, with A31P counted along it
Chain of Cytochrome c, somatic P31A, P62898 (P62898 whole entry P31A): as the sequence (P62898 whole entry P31A/Y68F) above, with F68Y counted along it

Substance	denaturant m value (structure 1I5T) [kcal/mol/M]	denaturant midpoint (higher = more stable) (structure 1I5T) [M]	unfolding free energy (structure 1I5T) [kcal/mol]	Tm (structure 1I5T) [°C]	change of melting temperature, mutant - wild type (higher = more stable) (structure 1I5T) [°C]	denaturant m value [kcal/mol/M]	denaturant midpoint (higher = more stable) [M]	unfolding free energy [kcal/mol]	Tm [°C]
Cytochrome c, somatic P31A, P62898	0.7	5.38	3.76	51	-9				
Cytochrome c, somatic P31A|Y68F, P62898 P31A Y68F	1.16	5.81	6.74	62	2				
Cytochrome c, somatic Y68F, P62898	0.86	8.33	7.19	90	30				
Cytochrome c, somatic wild type, P62898						1.21	7.6	9.15	60
